# Assays:
# [1] = target: epas1_mouse Epas1 (UniProt P97481)
# [2] = target: Hif1a, Q61221-1
# [3] = target: arnt_mouse Arnt (UniProt P53762)
# [4] = target: arnt_mouse Arnt (UniProt P53762); remark: listed apart in the source
# Hif1a, Q61221-1, sequence (Q61221 whole entry): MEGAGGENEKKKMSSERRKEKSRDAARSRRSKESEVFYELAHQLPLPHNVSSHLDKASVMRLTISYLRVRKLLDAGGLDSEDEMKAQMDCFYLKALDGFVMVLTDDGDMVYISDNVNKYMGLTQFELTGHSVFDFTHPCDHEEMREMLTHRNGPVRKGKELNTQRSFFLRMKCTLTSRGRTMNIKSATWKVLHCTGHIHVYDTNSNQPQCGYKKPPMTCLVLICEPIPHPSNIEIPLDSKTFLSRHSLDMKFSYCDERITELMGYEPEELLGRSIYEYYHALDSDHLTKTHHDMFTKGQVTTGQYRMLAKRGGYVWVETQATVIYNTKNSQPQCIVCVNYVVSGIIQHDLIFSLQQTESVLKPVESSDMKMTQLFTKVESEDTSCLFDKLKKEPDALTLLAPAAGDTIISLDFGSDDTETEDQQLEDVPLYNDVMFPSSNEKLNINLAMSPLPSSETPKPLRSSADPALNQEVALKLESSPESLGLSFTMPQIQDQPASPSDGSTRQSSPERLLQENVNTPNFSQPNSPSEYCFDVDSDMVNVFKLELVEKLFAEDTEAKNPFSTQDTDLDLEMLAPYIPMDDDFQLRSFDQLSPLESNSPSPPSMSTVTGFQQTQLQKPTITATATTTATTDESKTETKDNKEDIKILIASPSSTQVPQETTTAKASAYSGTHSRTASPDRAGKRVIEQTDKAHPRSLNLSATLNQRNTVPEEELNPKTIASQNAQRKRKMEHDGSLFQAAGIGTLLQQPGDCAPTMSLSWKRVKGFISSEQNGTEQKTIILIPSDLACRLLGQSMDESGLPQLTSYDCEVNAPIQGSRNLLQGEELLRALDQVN
# Hypoxia-inducible factor 1-alpha (Mus musculus), Q61221-1 V191D, sequence (Q61221 whole entry V191D): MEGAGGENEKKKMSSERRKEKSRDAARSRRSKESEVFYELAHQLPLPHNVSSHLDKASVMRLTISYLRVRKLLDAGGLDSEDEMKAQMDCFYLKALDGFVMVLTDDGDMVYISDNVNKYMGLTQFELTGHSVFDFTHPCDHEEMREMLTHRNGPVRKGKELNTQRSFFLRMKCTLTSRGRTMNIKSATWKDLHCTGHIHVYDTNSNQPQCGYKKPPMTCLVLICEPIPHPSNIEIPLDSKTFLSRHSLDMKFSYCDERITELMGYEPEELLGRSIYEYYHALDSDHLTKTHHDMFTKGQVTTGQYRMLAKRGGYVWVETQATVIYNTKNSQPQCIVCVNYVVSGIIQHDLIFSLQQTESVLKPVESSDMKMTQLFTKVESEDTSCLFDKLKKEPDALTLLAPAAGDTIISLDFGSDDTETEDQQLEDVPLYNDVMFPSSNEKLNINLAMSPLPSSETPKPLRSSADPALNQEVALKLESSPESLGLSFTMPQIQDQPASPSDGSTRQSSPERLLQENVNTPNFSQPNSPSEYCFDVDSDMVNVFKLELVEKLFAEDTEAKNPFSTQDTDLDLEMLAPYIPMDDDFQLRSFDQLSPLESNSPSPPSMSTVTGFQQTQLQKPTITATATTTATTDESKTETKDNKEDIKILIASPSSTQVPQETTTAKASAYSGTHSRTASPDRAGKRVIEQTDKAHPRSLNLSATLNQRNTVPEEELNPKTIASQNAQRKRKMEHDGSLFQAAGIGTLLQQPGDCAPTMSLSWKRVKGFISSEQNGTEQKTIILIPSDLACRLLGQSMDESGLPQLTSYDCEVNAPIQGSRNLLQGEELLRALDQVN
# Hypoxia-inducible factor 1-alpha (Mus musculus), Q61221-1 R170A, sequence (Q61221 whole entry R170A): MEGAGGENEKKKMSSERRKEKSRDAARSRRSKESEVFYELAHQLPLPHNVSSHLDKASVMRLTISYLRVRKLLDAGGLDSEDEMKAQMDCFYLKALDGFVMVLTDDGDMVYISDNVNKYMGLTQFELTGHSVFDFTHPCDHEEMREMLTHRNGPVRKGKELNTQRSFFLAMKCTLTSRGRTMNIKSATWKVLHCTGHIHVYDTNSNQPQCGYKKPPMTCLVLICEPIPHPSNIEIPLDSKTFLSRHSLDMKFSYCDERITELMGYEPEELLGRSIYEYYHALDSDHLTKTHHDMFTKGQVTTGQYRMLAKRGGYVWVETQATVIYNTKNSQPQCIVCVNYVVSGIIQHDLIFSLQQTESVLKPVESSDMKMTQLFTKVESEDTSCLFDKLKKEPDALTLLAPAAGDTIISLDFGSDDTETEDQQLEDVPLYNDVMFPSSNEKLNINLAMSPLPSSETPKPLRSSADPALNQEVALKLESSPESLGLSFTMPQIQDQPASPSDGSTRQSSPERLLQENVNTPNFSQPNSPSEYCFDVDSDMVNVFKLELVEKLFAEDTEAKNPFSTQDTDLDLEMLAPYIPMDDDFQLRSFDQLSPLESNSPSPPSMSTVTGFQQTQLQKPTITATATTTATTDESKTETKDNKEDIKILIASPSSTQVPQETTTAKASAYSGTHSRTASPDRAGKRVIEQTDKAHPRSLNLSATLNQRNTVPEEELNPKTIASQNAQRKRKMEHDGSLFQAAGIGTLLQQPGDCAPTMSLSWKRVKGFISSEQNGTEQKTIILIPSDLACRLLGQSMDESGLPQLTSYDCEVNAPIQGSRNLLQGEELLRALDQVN
# Hypoxia-inducible factor 1-alpha (Mus musculus), Q61221-1 R170A;V191D, sequence (Q61221 whole entry R170A/V191D): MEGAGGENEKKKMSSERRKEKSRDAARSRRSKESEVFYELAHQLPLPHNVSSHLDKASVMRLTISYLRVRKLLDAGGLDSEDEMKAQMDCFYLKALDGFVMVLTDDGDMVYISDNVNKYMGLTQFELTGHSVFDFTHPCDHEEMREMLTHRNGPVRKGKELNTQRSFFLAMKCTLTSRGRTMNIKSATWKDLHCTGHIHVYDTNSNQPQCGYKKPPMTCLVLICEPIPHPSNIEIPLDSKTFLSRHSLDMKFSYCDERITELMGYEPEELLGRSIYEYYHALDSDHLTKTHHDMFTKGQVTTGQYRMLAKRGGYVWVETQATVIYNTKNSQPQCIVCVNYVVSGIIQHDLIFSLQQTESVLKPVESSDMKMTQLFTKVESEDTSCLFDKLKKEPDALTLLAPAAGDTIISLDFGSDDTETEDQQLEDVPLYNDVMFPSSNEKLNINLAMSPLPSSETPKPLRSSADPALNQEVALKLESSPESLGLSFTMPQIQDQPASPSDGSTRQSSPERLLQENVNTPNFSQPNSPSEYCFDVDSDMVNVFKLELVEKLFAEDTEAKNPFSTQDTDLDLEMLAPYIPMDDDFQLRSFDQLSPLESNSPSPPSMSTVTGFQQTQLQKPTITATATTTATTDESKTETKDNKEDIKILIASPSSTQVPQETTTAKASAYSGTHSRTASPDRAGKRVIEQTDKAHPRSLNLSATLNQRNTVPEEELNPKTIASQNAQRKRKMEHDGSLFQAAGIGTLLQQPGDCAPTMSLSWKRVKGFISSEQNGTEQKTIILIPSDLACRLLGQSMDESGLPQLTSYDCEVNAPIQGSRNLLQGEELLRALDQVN
effect of a mutation on the interaction [1],effect of a mutation on the interaction [2],effect of a mutation on the interaction [3],effect of a mutation on the interaction [4],Substance
disrupting interaction strength,decreasing interaction strength,–,–,"Aryl hydrocarbon receptor nuclear translocator (Mus musculus), P53762 A171D"
disrupting interaction strength,disrupting interaction strength,–,–,"Aryl hydrocarbon receptor nuclear translocator (Mus musculus), P53762 I168D"
disrupting interaction strength,disrupting interaction strength,–,–,"Aryl hydrocarbon receptor nuclear translocator (Mus musculus), P53762 L112E"
decreasing interaction strength,–,–,–,"Aryl hydrocarbon receptor nuclear translocator (Mus musculus), P53762 R266A"
–,–,decreasing interaction strength,–,"Endothelial PAS domain-containing protein 1 (Mus musculus), P97481 H194A"
–,–,decreasing interaction strength,–,"Endothelial PAS domain-containing protein 1 (Mus musculus), P97481 R171A"
–,–,disrupting interaction strength,–,"Endothelial PAS domain-containing protein 1 (Mus musculus), P97481 R171A;V192D"
–,–,–,decreasing interaction strength,"Hypoxia-inducible factor 1-alpha (Mus musculus), Q61221-1 R170A;V191D"

# Second part, the substance before the results:
Substance,effect of a mutation on the interaction [1],effect of a mutation on the interaction [2],effect of a mutation on the interaction [3],effect of a mutation on the interaction [4]
"Aryl hydrocarbon receptor nuclear translocator (Mus musculus), P53762 I264D",disrupting interaction strength,decreasing interaction strength,–,–
"Aryl hydrocarbon receptor nuclear translocator (Mus musculus), P53762 I264D;V305D",decreasing interaction strength,decreasing interaction strength,–,–
"Aryl hydrocarbon receptor nuclear translocator (Mus musculus), P53762 L112E;L132E",disrupting interaction strength,disrupting interaction strength,–,–
"Aryl hydrocarbon receptor nuclear translocator (Mus musculus), P53762 L132E",disrupting interaction strength,disrupting interaction strength,–,–
"Aryl hydrocarbon receptor nuclear translocator (Mus musculus), P53762 L167E",disrupting interaction strength,decreasing interaction strength,–,–
"Aryl hydrocarbon receptor nuclear translocator (Mus musculus), P53762 L167E;A171D",disrupting interaction strength,decreasing interaction strength,–,–
"Aryl hydrocarbon receptor nuclear translocator (Mus musculus), P53762 R366A",decreasing interaction strength,decreasing interaction strength,–,–
"Aryl hydrocarbon receptor nuclear translocator (Mus musculus), P53762 R366A;N448A",disrupting interaction strength,disrupting interaction strength,–,–
"Aryl hydrocarbon receptor nuclear translocator (Mus musculus), P53762 V136D",disrupting interaction strength,disrupting interaction strength,–,–
"Aryl hydrocarbon receptor nuclear translocator (Mus musculus), P53762 V305D",decreasing interaction strength,decreasing interaction strength,–,–
"Endothelial PAS domain-containing protein 1 (Mus musculus), P97481 F169D",–,–,decreasing interaction strength,–
"Endothelial PAS domain-containing protein 1 (Mus musculus), P97481 V192D",–,–,decreasing interaction strength,–
"Hypoxia-inducible factor 1-alpha (Mus musculus), Q61221-1 R170A",–,–,–,decreasing interaction strength
"Hypoxia-inducible factor 1-alpha (Mus musculus), Q61221-1 V191D",–,–,–,decreasing interaction strength

# From IntAct's records for PubMed 26245371
